Assay results taken from publication doi:10.1101/2020.04.09.034520.

Molecular target: FKBP_C-term (FKBP fused at its C-terminal end to the C-terminal NanoLuc fragment N2)
Test: split reporter

**Q.** With “FRB_N-term (FRB fused at its C-terminal end to the N-terminal NanoLuc fragment N1)” as the substance, how does the luminescence without rapamycin as percent of that with rapamycin read?
**A.** 3%
